Tests used:
[1] = target: Glutathiolated H-Ras^1-166 (Ras^SSG) (human) (UniProt P01112)
[2] = target: Truncated human H-ras (H-Ras^1-166), wild type (human) (UniProt P01112)

rate of MANT-GDP dissociation from 1 uM Ras with SOS^cat at a 1:1 ratio, 25°C [1]: 0.00185 s⁻¹
rate of MANT-GDP dissociation from 1 uM Ras with SOS^cat at a 1:1 ratio, 25°C [2]: 0.00202 s⁻¹
Substance: Minimal catalytic domain of Son of Sevenless (SOS^cat) (domain or fragment)

From paper PMC3985386
